In patent US20240101647A1 (VIB VZW, published 2024):

Assays:
[1] = molecular target: T1, monomeric human Fc-fused SARS-CoV-2_RBD-SD1 (SARS-CoV-2, UniProt P0DTC2 319-591); assay: ELISA with periplasmic extract, RBD captured by VHH72-Fc
[2] = molecular target: T1, monomeric human Fc-fused …

B1: VHH3.94 (VHH)
VHH: QVQLQESGGGLVQPGGSLRLSCAASGKAVSISDMGWYRQPPGKQRELVATITKSGSTNYANSAQGRFTISRDNAKSAVYLEMNSLKPEDTAVYYCNAWLPYGMGPDYYGMELWGEGTQVTVSS
[1]
  binding result: binds

B2: VHH3.89 (VHH)
VHH: QVQLQESGGGLVQPGGSLRLSCAASGFTLDYYAIGWFREVPGKEREGLSRIDSSDGSTYYADSVKGRFTISRDNTKNIVYLQMNNLKPEDTAVYYCATDPIIQGRNWYWTGWGQGTQVTVSS
[2]
  Kd: 0.292 nM

B3: VHH3.183 (VHH)
VHH: QVQLQESGGGLVQPGGSLRLSCAASGLDYYAIGWFRQAPGKEREGLSRIESSDGSTYYADSVKGRFTISRDNTKNTVYLQMNSLKPEDTAVYYCATDPIIQGSSWYWTSWGQGTQVTVSS
[2]
  koff: 0.0014 s⁻¹
